Literature values, collected in patent EP4471063A1, “ANTIBODY AGAINST HER3, CONJUGATE AND USE THEREOF” (priority 2022, dated 2023).

Tests used:
[1] = multicenter clinical studies
[2] = once every three weeks, five administrations, 0, 3, 10, 30 mg/kg

Patritumab Deruxtecan
body weight (at all doses): no significant abnormality
toxic target organs (cynomolgus monkey, in vivo): thymus, bone marrow, and skin
dose at which a decrease in reticulocytes, lymphocytes, and platelets was observed [2]: ≥ 3 mg/kg
dose at which transferases increased [2]: ≥ 10 mg/kg
thrombocytopenia as treatment emergent adverse event (TEAE) [1]: 30%
